Numbering of substitutions follows the chain as printed.
Key:
Assay in all cases: cleavage_in_vitro
[1] = tested on: T1, BspQI-HF K279P/R388F (Bacillus sphaericus); settings: NEB4, 10 mM Mg acetate, 50 C
T1 sequence: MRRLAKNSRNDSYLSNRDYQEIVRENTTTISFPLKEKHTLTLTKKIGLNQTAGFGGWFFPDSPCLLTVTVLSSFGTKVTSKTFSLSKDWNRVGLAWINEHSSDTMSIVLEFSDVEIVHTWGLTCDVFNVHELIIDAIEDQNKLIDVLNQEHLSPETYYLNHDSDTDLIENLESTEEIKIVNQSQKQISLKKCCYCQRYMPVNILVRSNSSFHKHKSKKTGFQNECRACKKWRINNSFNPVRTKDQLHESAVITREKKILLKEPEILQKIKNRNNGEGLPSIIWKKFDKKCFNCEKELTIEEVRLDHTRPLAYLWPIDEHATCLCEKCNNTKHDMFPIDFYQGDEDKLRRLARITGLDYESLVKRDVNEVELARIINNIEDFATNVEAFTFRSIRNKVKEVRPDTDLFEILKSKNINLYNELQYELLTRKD

[2] = target: T2, SalI-HF R107A (Streptomyces albus G) (UniProt Q53608); settings: NEB2, 10 mM MgCl2, 37 C; Table 10 gives FI >=2000
T2 sequence: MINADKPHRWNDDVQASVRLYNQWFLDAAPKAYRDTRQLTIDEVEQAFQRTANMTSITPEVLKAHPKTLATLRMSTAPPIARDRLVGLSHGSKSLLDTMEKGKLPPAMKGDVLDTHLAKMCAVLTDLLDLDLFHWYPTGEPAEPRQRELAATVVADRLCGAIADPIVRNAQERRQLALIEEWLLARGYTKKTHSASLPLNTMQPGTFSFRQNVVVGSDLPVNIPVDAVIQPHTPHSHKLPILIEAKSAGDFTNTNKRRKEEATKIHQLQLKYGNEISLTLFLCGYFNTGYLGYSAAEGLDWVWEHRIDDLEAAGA

[3] = target: T3, SalI (Streptomyces albus G) (UniProt Q53608); settings: NEB3, 10 mM MgCl2, 37 C; Table 10 gives FI 4
T3 sequence: T2 sequence with A107R

[4] = tested on: T4, AvrII-HF Y104F (Anabaena variabilis); settings: NEB4, 10 mM Mg acetate, 37 C
T4 sequence: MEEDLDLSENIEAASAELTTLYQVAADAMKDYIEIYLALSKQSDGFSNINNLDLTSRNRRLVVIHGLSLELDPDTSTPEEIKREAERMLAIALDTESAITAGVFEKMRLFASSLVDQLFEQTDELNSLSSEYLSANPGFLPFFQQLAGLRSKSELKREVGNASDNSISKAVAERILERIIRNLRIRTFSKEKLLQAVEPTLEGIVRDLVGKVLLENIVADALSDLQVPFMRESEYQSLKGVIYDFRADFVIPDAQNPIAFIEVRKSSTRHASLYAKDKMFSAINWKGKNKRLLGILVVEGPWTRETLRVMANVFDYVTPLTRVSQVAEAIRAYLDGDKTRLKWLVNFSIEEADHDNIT

[5] = tested on: T5, AvrII (Anabaena variabilis); settings: NEB1, 10 mM MgCl2, 37 C
T5 sequence: T4 sequence with F104Y

PvuII (Proteus vulgaris) = target: T6, PvuII (Proteus vulgaris) (UniProt P23657); settings: NEB1, 10 mM MgCl2, 37 C
T6 sequence: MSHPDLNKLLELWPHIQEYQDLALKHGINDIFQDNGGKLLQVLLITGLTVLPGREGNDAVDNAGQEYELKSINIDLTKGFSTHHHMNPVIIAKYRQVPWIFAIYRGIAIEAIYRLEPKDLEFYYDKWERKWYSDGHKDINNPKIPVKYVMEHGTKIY

[6] = target: T7, PvuII-HF T46G (Proteus vulgaris) (UniProt P23657); settings: NEB4, 10 mM Mg acetate, 37 C
T7 sequence: T6 sequence with T46G

Q: How did the activity (fidelity index) [1] turn out when pUC19 was run?
A: > 4000

Q: What does the source list for lambda DNA HindIII-digested?
A: activity (fidelity index) [2]: > 64000; activity (fidelity index) [3]: 32

Q: Which results are given for T7 DNA?
A: activity (fidelity index) [4]: > 1000; activity (fidelity index) [5]: 64

Q: Which results are given for pBR322?
A: activity (fidelity index) (PvuII (Proteus vulgaris)): 250; activity (fidelity index) [6]: 500

— patent US20130115676
